From doi:10.1101/2020.09.25.312835 (bioRxiv, 2020) come the findings set out here.

The data set deals with the molecule itself. Nature of the data set: cross-linking.

B1: C-terminal fragment of bovine ROS-GC1 comprising the αHD and CD (aa 814-1110) (domain or fragment, UniProt P55203 814-1110, looked up)
chain: NKGRKMNIIDSMLRMLEQYSSNLEDLIRERTEELELEKQKTDRLLTQMLPPSVAEALKMGTPVEPEYFEEVTLYFSDIVGFTTISAMSEPIEVVDLLNDLYTLFDAIIGSHDVYKVETIGDAYMVASGLPQRNGHRHAAEIANMALDILSAVGTFRMRHMPEVPVRIRIGLHSGPCVAGVVGLTMPRYCLFGDTVNTASAMESTGLPYRIHVNRSTVQILSALNEGFLTEVRGRTELKGKGAEETYWLVGRRGFNKPIPKPPDLQPGASNHGISLHEIPPDRRQKLEKARPGQFSGK
Take B1: the binding result is recorded as “binds”.
